{
  "source": "the RNAGym collection of RNA variant scans (doi:10.1073/pnas.2313332121)",
  "parents": {"B1": {"name": "TPR t1 (parent)", "chain": "GACCAAUCUGCCCUCAGAGCUCGAGAACAUCUUCGGAUGCAGAGGAGGCAGGCUUCGGUGGCGCGAUAGCGCCAACGUCCUCAACCUCCAAUGCAUCCCACCACAUGAUGAUGCCUGAAGAGCCUUGGUUUUUUG"}},
  "data": [
    {"variants_of": "B1", "assay": "polymerase ribozyme fitness, log enrichment relative to wild type (log ratio); higher = more active; in vitro selection for triplet polymerase activity", "summary_of_the_method": "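For each subunit of a heterodimeric triplet polymerase ribozyme, a mutant library was built by PCR and transcribed, then taken through a single in vitro selection round in triplicate. Selection involved annealing to a biotinylated primer, the partner subunit and triplets, incubation frozen at −7 °C, gel excision of extended constructs, capture on streptavidin beads and RT-PCR. Genotypes were retained after Illumina sequencing of inputs and outputs only with ≥10 input reads and ≥1 read in each output. Fitness is defined as the logarithm of a genotype's enrichment relative to wild-type enrichment, using inverse-variance-weighted averages across replicates, with the logarithm taken to base 2.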", "values": [
      {"variant": "A46U C56A C115U", "polymerase ribozyme fitness (log ratio)": -2.68},
      {"variant": "G47U C85U", "polymerase ribozyme fitness (log ratio)": -1.98},
      {"variant": "A46C U109C", "polymerase ribozyme fitness (log ratio)": -6.47},
      {"variant": "G48A A105C G120A A121C G122U U129A", "polymerase ribozyme fitness (log ratio)": -3.55},
      {"variant": "G47A G58C G113A A121C U125C U131C", "polymerase ribozyme fitness (log ratio)": -0.547},
      {"variant": "G47U A50G", "polymerase ribozyme fitness (log ratio)": -1.99},
      {"variant": "G47U C64U", "polymerase ribozyme fitness (log ratio)": -1.51},
      {"variant": "A46U C88A", "polymerase ribozyme fitness (log ratio)": -1.18},
      {"variant": "G45U G61U", "polymerase ribozyme fitness (log ratio)": -0.836},
      {"variant": "G47U A66U U125G", "polymerase ribozyme fitness (log ratio)": -3.75},
      {"variant": "G47C C53U", "polymerase ribozyme fitness (log ratio)": -0.348},
      {"variant": "A46G C73G C82U G93A C104A", "polymerase ribozyme fitness (log ratio)": -4.85},
      {"variant": "A46U C56G G61U A105U C123U", "polymerase ribozyme fitness (log ratio)": -5.93},
      {"variant": "G47A G69U C98U C99U", "polymerase ribozyme fitness (log ratio)": -2.9},
      {"variant": "G47A U54C G77A C82A G110A C123A", "polymerase ribozyme fitness (log ratio)": -3.8},
      {"variant": "G47A G117C", "polymerase ribozyme fitness (log ratio)": -4.01},
      {"variant": "G45U U96G", "polymerase ribozyme fitness (log ratio)": -1.78},
      {"variant": "G47U U54A G120A", "polymerase ribozyme fitness (log ratio)": -0.309},
      {"variant": "G47A U125G", "polymerase ribozyme fitness (log ratio)": -2.16},
      {"variant": "A46U G48A G52A C62A C88U C124U", "polymerase ribozyme fitness (log ratio)": -7.18},
      {"variant": "A46G C101A", "polymerase ribozyme fitness (log ratio)": -0.288},
      {"variant": "G45U U96A U132A", "polymerase ribozyme fitness (log ratio)": -2.11},
      {"variant": "A46U G69U A91U A103G U106A C114U U131G", "polymerase ribozyme fitness (log ratio)": -5.56},
      {"variant": "G47C C102U G110U U133A", "polymerase ribozyme fitness (log ratio)": -5.04},
      {"variant": "G47A G51U U55A C98A G113C", "polymerase ribozyme fitness (log ratio)": -7.22},
      {"variant": "G48A G63U C82G A91U G117C", "polymerase ribozyme fitness (log ratio)": -5.43},
      {"variant": "G47C G48A C72U A91C C97U", "polymerase ribozyme fitness (log ratio)": -3.42},
      {"variant": "G47U G52A C73A C86A", "polymerase ribozyme fitness (log ratio)": -0.962},
      {"variant": "G48A C79A U126C", "polymerase ribozyme fitness (log ratio)": -2.73},
      {"variant": "A46U C49U G58C G60A A95C U112G U132A", "polymerase ribozyme fitness (log ratio)": -3.98},
      {"variant": "G48A C73A", "polymerase ribozyme fitness (log ratio)": -0.973},
      {"variant": "G47A G93U G113U C123U G135U", "polymerase ribozyme fitness (log ratio)": -6.04},
      {"variant": "G47A U96G G120U", "polymerase ribozyme fitness (log ratio)": -1.94},
      {"variant": "G47U C53G A105G", "polymerase ribozyme fitness (log ratio)": -4.47},
      {"variant": "G48C C56U C85U U126G", "polymerase ribozyme fitness (log ratio)": -2.57},
      {"variant": "G47A G48A U129A", "polymerase ribozyme fitness (log ratio)": -2.41},
      {"variant": "G47C C62G A118G", "polymerase ribozyme fitness (log ratio)": -3.74},
      {"variant": "G47A C70A C101U", "polymerase ribozyme fitness (log ratio)": -1.81},
      {"variant": "A46U C62G U112G", "polymerase ribozyme fitness (log ratio)": -2.14},
      {"variant": "G47A U78A", "polymerase ribozyme fitness (log ratio)": -1.09},
      {"variant": "A46U C89U", "polymerase ribozyme fitness (log ratio)": -2.66},
      {"variant": "G48A G61A U130A", "polymerase ribozyme fitness (log ratio)": -0.668},
      {"variant": "G47U G48A G52U", "polymerase ribozyme fitness (log ratio)": -2.97},
      {"variant": "A46U G52U A66G C104U G110A", "polymerase ribozyme fitness (log ratio)": -5.89},
      {"variant": "G48A C104U", "polymerase ribozyme fitness (log ratio)": -1.25},
      {"variant": "A46G C56A A100C", "polymerase ribozyme fitness (log ratio)": -1.41},
      {"variant": "A46G C56A A91U", "polymerase ribozyme fitness (log ratio)": -2.49},
      {"variant": "A46G U112A", "polymerase ribozyme fitness (log ratio)": 1.3},
      {"variant": "G47C C102A G120U", "polymerase ribozyme fitness (log ratio)": -3.97},
      {"variant": "A46G C49A", "polymerase ribozyme fitness (log ratio)": 0.0417},
      {"variant": "A46G C49U", "polymerase ribozyme fitness (log ratio)": -0.575},
      {"variant": "G47U C64U A121U", "polymerase ribozyme fitness (log ratio)": 0.804},
      {"variant": "G48A C56U G93C C94G", "polymerase ribozyme fitness (log ratio)": -5.23},
      {"variant": "G48A C62A", "polymerase ribozyme fitness (log ratio)": -2.76},
      {"variant": "G48A U87A U96A", "polymerase ribozyme fitness (log ratio)": -1.88},
      {"variant": "G48C C49G A84U C124U", "polymerase ribozyme fitness (log ratio)": -1.8},
      {"variant": "A46C G57C", "polymerase ribozyme fitness (log ratio)": -0.329},
      {"variant": "A46C G57U", "polymerase ribozyme fitness (log ratio)": -0.681},
      {"variant": "G47C G71A", "polymerase ribozyme fitness (log ratio)": -3.14},
      {"variant": "A46C G58A C62U", "polymerase ribozyme fitness (log ratio)": -1.93},
      {"variant": "A46U G71U C89U C115A", "polymerase ribozyme fitness (log ratio)": -2.17},
      {"variant": "G47U C101A C104U", "polymerase ribozyme fitness (log ratio)": -2.34},
      {"variant": "A46U C97A C99G G117C", "polymerase ribozyme fitness (log ratio)": -7.9},
      {"variant": "A46U C56G G120C", "polymerase ribozyme fitness (log ratio)": -0.234},
      {"variant": "G48C C72U A90G U132A", "polymerase ribozyme fitness (log ratio)": -0.935},
      {"variant": "G45U G69A U78A G127C", "polymerase ribozyme fitness (log ratio)": -4.73},
      {"variant": "G47A G48A C53A G127A", "polymerase ribozyme fitness (log ratio)": -3.92},
      {"variant": "G47U C64A U116G C124U", "polymerase ribozyme fitness (log ratio)": -6.49},
      {"variant": "A46G U55G U87C", "polymerase ribozyme fitness (log ratio)": -0.104},
      {"variant": "G48A G69U", "polymerase ribozyme fitness (log ratio)": 1.02},
      {"variant": "G48A G69C", "polymerase ribozyme fitness (log ratio)": -1.33},
      {"variant": "A46G C53U G113A", "polymerase ribozyme fitness (log ratio)": -2.14},
      {"variant": "G47C A100U", "polymerase ribozyme fitness (log ratio)": -2.4},
      {"variant": "G47C C49A G63U U78C C123G C124U", "polymerase ribozyme fitness (log ratio)": -4.24},
      {"variant": "G48C C49A C88U A95G", "polymerase ribozyme fitness (log ratio)": -0.72},
      {"variant": "G47U C49U C62U", "polymerase ribozyme fitness (log ratio)": -4.79},
      {"variant": "A46G C97U", "polymerase ribozyme fitness (log ratio)": -1.05},
      {"variant": "G45U G117C", "polymerase ribozyme fitness (log ratio)": -4.15},
      {"variant": "G48C C49U U59A", "polymerase ribozyme fitness (log ratio)": -1.34},
      {"variant": "G47U A50U U59C C73A U78A", "polymerase ribozyme fitness (log ratio)": -2.43},
      {"variant": "A46U G71C C73U", "polymerase ribozyme fitness (log ratio)": -3.63},
      {"variant": "G47U G120C U131G", "polymerase ribozyme fitness (log ratio)": 0.253},
      {"variant": "A46U G71U A118G", "polymerase ribozyme fitness (log ratio)": -0.0825},
      {"variant": "G48A G63A", "polymerase ribozyme fitness (log ratio)": -1.14}
    ]}
  ]
}
